Data reported in patent US20120329707A1 (INDIANA UNIVERSITY RESEARCH AND TECHNOLOGY, published 2012).
Numbered stars: 1 amine (or outer) side, 2 acyl side, 3 side chain; on linkers, the order of the positions; unused ones are H or OH. Square brackets hold non-standard residues; d marks the D form. Primed or numbered codes have the meaning given here. Side chains are listed from the residue outwards. Ends that are not written are not given here. * marks the point of attachment. 40K‑TE PEG = 40 kDa PEG covalently bound via thioether, formed by reaction of the free thiol of the peptide (Cys side chain) with an iodoacetic-functionalized PEG; 40K‑TE PEG(3) = 40 kDa PEG bound to the Cys thiol via a thioether, made by reacting the free-thiol peptide with iodoacetic-functionalised PEG; 40K‑TE PEG″ = 40 kDa PEG bound to Cys via thioether made from an iodoacetyl-functionalised PEG; EDTA amide = ethylenediaminetetraacetic acid amide, O=C(O)CN(CCN(CC(=O)O)CC(=O)*)CC(=O)O; γGlu = O=C(O)[C@H](CCC(=O)[*:2])N[*:1]; Palmitoyl = CCCCCCCCCCCCCCCC(=O)*; Aib = CC(C)(N)C(=O)O

T1: GIP receptor
T1 sequence (P48546 whole entry, species assumed, looked up): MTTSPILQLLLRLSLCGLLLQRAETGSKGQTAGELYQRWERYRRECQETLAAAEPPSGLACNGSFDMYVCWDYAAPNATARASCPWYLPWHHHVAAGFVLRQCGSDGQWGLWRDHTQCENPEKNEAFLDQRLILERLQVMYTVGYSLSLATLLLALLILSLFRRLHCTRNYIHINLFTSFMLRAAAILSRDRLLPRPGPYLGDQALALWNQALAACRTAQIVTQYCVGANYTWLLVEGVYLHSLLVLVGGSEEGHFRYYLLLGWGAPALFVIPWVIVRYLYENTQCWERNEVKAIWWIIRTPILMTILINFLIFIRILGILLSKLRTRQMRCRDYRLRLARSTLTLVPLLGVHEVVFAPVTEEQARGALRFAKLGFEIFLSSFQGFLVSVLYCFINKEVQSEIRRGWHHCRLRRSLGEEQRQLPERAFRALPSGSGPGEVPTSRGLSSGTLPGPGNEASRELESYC

B1: peptide of SEQ ID NO: 58 (peptide)
peptide: H[Aib]QGTFTSDK(Palmitoyl)SKYLDSRRA[Aib]DFVQWLMNT-NH2
modifications: N-terminus assumed
SMILES: CCCCCCCCCCCCCCCC(=O)NCCCC[C@H](NC(=O)[C@H](CC(=O)O)NC(=O)[C@H](CO)NC(=O)[C@@H](NC(=O)[C@H](Cc1ccccc1)NC(=O)[C@@H](NC(=O)CNC(=O)[C@H](CCC(N)=O)NC(=O)C(C)(C)NC(=O)[C@@H](N)Cc1c[nH]cn1)[C@@H](C)O)[C@@H](C)O)C(=O)N[C@@H](CO)C(=O)N[C@@H](CCCCN)C(=O)N[C@@H](Cc1ccc(O)cc1)C(=O)N[C@@H](CC(C)C)C(=O)N[C@@H](CC(=O)O)C(=O)N[C@@H](CO)C(=O)N[C@@H](CCCNC(=N)N)C(=O)N[C@@H](CCCNC(=N)N)C(=O)N[C@@H](C)C(=O)NC(C)(C)C(=O)N[C@@H](CC(=O)O)C(=O)N[C@@H](Cc1ccccc1)C(=O)N[C@H](C(=O)N[C@@H](CCC(N)=O)C(=O)N[C@@H](Cc1c[nH]c2ccccc12)C(=O)N[C@@H](CC(C)C)C(=O)N[C@@H](CCSC)C(=O)N[C@@H](CC(N)=O)C(=O)N[C@H](C(N)=O)[C@@H](C)O)C(C)C

What follows are binders tested against glucagon receptor (assay: cell-based or functional assay).

Row | Binder | EC50 (nM) at glucagon receptor
1 | H[dA]QGTFTSDK([γGlu-Palmitoyl])SKYLDERAAQDFVQWLLDT-NH2 [peptide of SEQ ID NO: 56] | 0.006 nM
2 | H[Aib]QGTFTSDYSKYLD[Aib]KRA[Aib]EFVC(40K‑TE PEG″)WLLDT-NH2 [peptide of SEQ ID NO: 38] | 0.141 nM
3 | H[dS]QGTFTSDK(EDTA amide)SKYLDERAAQDFVQWLLDGGPSSGAPPPS-NH2 [peptide of SEQ ID NO: 55] | 4.34 nM
4 | H[Aib]QGTFTSDYSKYLDEKRA[Aib]EFVC(40K‑TE PEG)WLLDT-NH2 [peptide of SEQ ID NO: 13] | 0.141 nM
5 | H[Aib]QGTFTSDYSKYLDEKRA[Aib]DFVC(40K‑TE PEG(3))WLLDT-NH2 [peptide of SEQ ID NO: 54] | 0.939 nM
6 | H[Aib]QGTFTSDYSKYLDEKRA[Aib]EFV[Aib]WLLC(40K‑TE PEG)T-NH2 [peptide of SEQ ID NO: 42] | 1.01 nM
7 | B1 | 0.09 nM
8 | H[Aib]QGTFTSDYSKYLDEKRA[Aib]EFVC(40K‑TE PEG)WLL[Aib]GGPSSGAPPPS-NH2 [peptide of SEQ ID NO: 51] | 2.04 nM
9 | H[Aib]QGTFTSDYSKYLDEKRA[Aib]EFVC(40K‑TE PEG)WLL[Aib]T-NH2 [peptide of SEQ ID NO: 41] | 0.309 nM
10 | H[Aib]QGTFTSDYSKYLD[Aib]KRAKEFVQWLLC(40K‑TE PEG)T-OH [peptide of SEQ ID NO: 39] | 0.852 nM

Each binder was assayed against GLP-1 receptor (assay: cell-based or functional assay).

Row | Binder | EC50 (nM) at GLP-1 receptor
11 | H[dA]QGTFTSDK([γGlu-Palmitoyl])SKYLDERAAQDFVQWLLDT-NH2 [peptide of SEQ ID NO: 56] | 0.02 nM
12 | H[Aib]QGTFTSDYSKYLD[Aib]KRA[Aib]EFVC(40K‑TE PEG″)WLLDT-NH2 [peptide of SEQ ID NO: 38] | 0.31 nM
13 | H[dS]QGTFTSDK(EDTA amide)SKYLDERAAQDFVQWLLDGGPSSGAPPPS-NH2 [peptide of SEQ ID NO: 55] | 0.108 nM
14 | H[Aib]QGTFTSDYSKYLDEKRA[Aib]EFVC(40K‑TE PEG)WLLDT-NH2 [peptide of SEQ ID NO: 13] | 0.067 nM
15 | H[Aib]QGTFTSDYSKYLDEKRA[Aib]DFVC(40K‑TE PEG(3))WLLDT-NH2 [peptide of SEQ ID NO: 54] | 0.097 nM
16 | H[Aib]QGTFTSDYSKYLDEKRA[Aib]EFV[Aib]WLLC(40K‑TE PEG)T-NH2 [peptide of SEQ ID NO: 42] | 0.117 nM
17 | B1 | 0.025 nM
18 | H[Aib]QGTFTSDYSKYLDEKRA[Aib]EFVC(40K‑TE PEG)WLL[Aib]GGPSSGAPPPS-NH2 [peptide of SEQ ID NO: 51] | 0.062 nM
19 | H[Aib]QGTFTSDYSKYLDEKRA[Aib]EFVC(40K‑TE PEG)WLL[Aib]T-NH2 [peptide of SEQ ID NO: 41] | 0.074 nM
20 | H[Aib]QGTFTSDYSKYLD[Aib]KRAKEFVQWLLC(40K‑TE PEG)T-OH [peptide of SEQ ID NO: 39] | 1.28 nM

These binders were tested against T1, GIP receptor (assay: cell-based or functional assay).

Row | Binder | EC50 (nM) at GIP receptor
21 | H[dA]QGTFTSDK([γGlu-Palmitoyl])SKYLDERAAQDFVQWLLDT-NH2 [peptide of SEQ ID NO: 56] | 1.64 nM
22 | B1 | 35.7 nM
